# Measurements reported in patent publication US20190153113A1, “CD39 VASCULAR ISOFORM TARGETING AGENTS” (INNATE PHARMA, priority 2015, published 2019).
# Assays:
# [1] = target: T1, Human CD39 (vascular CD39, NTPDase1, ENTPD1) expressed at the cell surface (human, UniProt P49961 1-510); assay: cell-based or functional assay
# T1 sequence: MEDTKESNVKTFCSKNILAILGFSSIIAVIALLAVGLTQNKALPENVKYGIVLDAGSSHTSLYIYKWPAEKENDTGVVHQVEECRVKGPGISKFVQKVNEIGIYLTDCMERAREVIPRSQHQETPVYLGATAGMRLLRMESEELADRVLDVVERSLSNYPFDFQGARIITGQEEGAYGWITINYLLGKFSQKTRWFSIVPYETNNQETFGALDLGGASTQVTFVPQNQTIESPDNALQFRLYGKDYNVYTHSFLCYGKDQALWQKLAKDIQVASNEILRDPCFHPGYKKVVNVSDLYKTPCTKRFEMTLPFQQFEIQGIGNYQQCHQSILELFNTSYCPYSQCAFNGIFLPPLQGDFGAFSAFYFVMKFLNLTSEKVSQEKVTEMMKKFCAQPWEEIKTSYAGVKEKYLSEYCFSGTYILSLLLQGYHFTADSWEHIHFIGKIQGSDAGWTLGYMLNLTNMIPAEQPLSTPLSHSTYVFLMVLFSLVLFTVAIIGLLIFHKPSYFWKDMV
# [2] = target: T2, Cynomolgus CD39 expressed on HEK cells (cynomolgus, UniProt A0A7N9DGH8 1-510); assay: flow cytometry on HEK cells expressing cynomolgus CD39, antibody 99 nM to 0.045 nM (FIG. 1 legend says ELISA)
# T2 construct: whole, on cells; also called cynoCD39; cynomolgus vascular CD39
# T2 sequence: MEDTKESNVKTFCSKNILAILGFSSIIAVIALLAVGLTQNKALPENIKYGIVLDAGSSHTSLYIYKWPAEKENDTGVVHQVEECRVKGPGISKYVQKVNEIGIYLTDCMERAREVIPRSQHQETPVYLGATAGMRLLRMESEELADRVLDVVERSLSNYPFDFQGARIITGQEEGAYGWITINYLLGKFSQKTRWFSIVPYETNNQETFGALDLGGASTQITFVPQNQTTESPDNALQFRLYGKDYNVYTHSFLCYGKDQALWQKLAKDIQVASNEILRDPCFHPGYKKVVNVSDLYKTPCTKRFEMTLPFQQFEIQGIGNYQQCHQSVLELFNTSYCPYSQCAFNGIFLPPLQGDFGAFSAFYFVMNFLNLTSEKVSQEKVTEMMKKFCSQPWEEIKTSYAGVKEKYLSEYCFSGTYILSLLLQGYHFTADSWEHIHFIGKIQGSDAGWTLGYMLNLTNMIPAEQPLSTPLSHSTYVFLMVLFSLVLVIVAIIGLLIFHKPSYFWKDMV
# Procedure: Briefly, 1×10⁵ HEK-huCD39or cynoCD39 cells were incubated with various concentration of unlabeled anti-CD39 antibody or isotype control (IC) from 99 nM to 0.045 nM, for 30 minutes at 4° C. After washes, cells were incubated with Goat anti-mouse H+L labeled secondary antibody for 30 min at 4° C.
# vascular CD39 = target: T3, vascular CD39 (Homo sapiens, UniProt P49961); assay: ELISA titration on recombinant human CD39 isoforms; type: binding; conditions: recombinant protein coated
# T3 construct: recombinant human CD39-M2 extracellular domain recombinant protein; made in house; host or cells: CHO cells (secreted, purified from supernatant)
# T3 sequence (P49961 38-478 limits assumed): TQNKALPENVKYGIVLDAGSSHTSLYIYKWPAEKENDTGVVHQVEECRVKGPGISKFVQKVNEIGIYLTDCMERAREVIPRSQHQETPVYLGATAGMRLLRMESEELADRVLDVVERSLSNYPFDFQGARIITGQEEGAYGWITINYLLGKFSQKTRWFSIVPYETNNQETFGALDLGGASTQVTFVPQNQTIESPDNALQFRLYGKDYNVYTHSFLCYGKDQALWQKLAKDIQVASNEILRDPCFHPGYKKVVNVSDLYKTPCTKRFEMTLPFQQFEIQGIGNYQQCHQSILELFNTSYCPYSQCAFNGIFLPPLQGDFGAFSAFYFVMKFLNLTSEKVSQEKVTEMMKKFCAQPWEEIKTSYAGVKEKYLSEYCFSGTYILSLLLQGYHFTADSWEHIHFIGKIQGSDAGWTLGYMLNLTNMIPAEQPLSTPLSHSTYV
# Procedure: (§1) Wells were washed in TBS Tween 20, and further saturated 2H at RT in TBS Blocking buffer. Dose range concentration of primary antibody was incubated in TBS blocking buffer for 2h at RT. Wells were washed in TBS Tween 20. […] Optical density was measured on Enspire at OD=450.
# CD39-L4 = target: T4, CD39-L4 (Homo sapiens, UniProt O75356); assay: ELISA titration on recombinant human CD39 isoforms; type: binding; conditions: recombinant protein coated
# T4 sequence (O75356 25-428): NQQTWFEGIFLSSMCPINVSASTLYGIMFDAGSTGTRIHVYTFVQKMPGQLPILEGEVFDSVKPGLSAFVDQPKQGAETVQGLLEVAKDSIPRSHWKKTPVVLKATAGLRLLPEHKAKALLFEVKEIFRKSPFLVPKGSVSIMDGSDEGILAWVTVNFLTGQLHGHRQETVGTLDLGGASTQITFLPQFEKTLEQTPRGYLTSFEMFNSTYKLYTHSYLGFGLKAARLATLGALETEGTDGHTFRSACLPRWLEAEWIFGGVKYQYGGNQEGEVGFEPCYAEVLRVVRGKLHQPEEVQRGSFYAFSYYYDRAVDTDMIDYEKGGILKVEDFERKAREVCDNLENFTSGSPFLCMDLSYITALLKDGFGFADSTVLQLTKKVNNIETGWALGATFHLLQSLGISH
# Procedure: as §1
# CD39-L2 = target: T5, CD39-L2 (Homo sapiens, UniProt O75354, K202E); assay: ELISA titration on recombinant human CD39 isoforms; type: binding; conditions: recombinant protein coated
# T5 sequence (O75354 1-484 K202E): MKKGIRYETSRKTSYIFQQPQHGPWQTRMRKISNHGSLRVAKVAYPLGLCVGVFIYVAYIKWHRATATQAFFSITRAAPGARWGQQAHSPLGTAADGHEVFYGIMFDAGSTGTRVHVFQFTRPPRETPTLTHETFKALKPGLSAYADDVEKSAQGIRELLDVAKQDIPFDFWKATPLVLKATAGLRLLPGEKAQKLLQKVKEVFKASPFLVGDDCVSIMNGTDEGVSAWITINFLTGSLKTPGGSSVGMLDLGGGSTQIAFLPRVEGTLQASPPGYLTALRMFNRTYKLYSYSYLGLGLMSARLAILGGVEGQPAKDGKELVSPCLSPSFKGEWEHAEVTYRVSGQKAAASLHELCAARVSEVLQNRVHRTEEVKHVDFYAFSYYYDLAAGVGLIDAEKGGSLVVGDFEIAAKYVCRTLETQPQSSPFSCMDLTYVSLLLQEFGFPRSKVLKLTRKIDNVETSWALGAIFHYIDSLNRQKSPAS
# Procedure: as §1
Molecule,"EC50 (inhibition of 50% of the enzymatic activity of CD39 expressed by 100,000 Ramos cells), AMP generated, Maldi TOF [1] [nM]",EC50 [2] [nM],binding to vascular CD39 (vascular CD39),binding to CD39-L4 (CD39-L4),binding to CD39-L2 (CD39-L2)
"Antibody I-391, Fc silent recombinant chimeric human IgG1 with heavy chain N297Q mutation (antibody, V domains shown) VH: QIQLVQSGPELKKPGETVKISCKASGYTFRNYGMNWVKQAPGKGLKWMGWINTYTGEPTYADDFKGRFAFSLATSASTAYLQISNLKNEDTATYFCARKAYYGSNYYFDYWGQGTTLTVSS VL: DIVMTQSHKFMSTSVGDRVSITCKASQDVSTAVAWYQQKPGQSPKLLIYSASYRYTGVPDRFTGSGSGTDFTFTISTVQAEDLAVYYCQQHYTTPPYTFGGGTKLEIKR",1.2,10.6,–,–,–
"I-392: anti-CD39 antibody, VH SEQ ID NO: 8 and VL SEQ ID NO: 9, chimeric human IgG1 with N297Q mutation (antibody, V domains shown) VH: QIQLVQSGPEVKKPRETVKISCKASGYTFTHYGMNWVKQAPGKGLKWMGWINTYTGEPTYADDFKGRFAFSLEASASTAYLQINNLKNEDTATYFCARRRYEGNYVFYYFDYWGQGTTLTVSS VL: DIQMTQSPASLSASVGETVTITCRASENIYSYFSWYQQKQGKSPQLLVYTAKTLAEGVPSRFSGSGSGTQFSLKINSLQPEDFGSYYCQHHYVTPYTFGGGTKLEIK",–,–,bound to the vascular CD39,not to any of the CD39 isoforms,not to any of the CD39 isoforms
